Reference: patent US7727960B2, “C5a receptor antagonists” (Jerini AG, priority 2003, dated 2010)

biological target: T1, human C5aR (CD88) (human, UniProt P21730 1-350); test: cell-based or functional assay
T1 sequence (looked up): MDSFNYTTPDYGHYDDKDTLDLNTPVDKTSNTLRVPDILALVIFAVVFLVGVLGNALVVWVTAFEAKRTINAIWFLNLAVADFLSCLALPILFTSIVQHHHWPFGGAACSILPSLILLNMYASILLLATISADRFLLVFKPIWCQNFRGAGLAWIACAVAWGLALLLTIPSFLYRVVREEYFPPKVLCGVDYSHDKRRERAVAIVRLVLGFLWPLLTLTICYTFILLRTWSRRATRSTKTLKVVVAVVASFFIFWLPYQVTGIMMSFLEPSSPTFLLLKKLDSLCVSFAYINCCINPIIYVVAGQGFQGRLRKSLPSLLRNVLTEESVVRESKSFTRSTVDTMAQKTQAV

Substance | IC50 activity group, enzyme release assay | EC50, agonistic activity, enzyme release assay
H-Phe-[Orn-Pro-cha-Pff-Nle] (peptide) | < 200 nM | 
Ac-Phe-[Orn-Thr-cha-Trp-Nle] (peptide) | < 200 nM | 
H-Phe-[Orn-Ser-cha-Trp-Nle] (peptide) | < 50 nM | > 1430 nM
Ac-Mff-Orn-Pro-cha-Bta-Phe-NH2 (peptide) | < 200 nM | 
Ac-Phe-Orn-Pro-hle-Otf-Phe-NH2 (peptide) | < 200 nM | 
H-Phe-[Orn-Hyp-hle-Trp-Hle] (peptide) | < 200 nM | 
H-Phe-[Orn-Hyp-hle-Pff-Leu] (peptide) | < 200 nM | 
Ac-Phe-[Orn-Ser-hle-Trp-Nle] (peptide) | < 200 nM | 
Ac-Phe-Ffa-Pro-hle-Bta-Phe-NH2 (peptide) | < 20 nM | 
Ac-Phe-Orn-Pro-cha-Bta-2Ni-NH2 (peptide) | < 50 nM | 
Ac-Phe-Fcp-Aze-cha-Bta-Phe-NH2 (peptide) | < 50 nM | 
H-Phe-[Orn-Hyp-hle-Trp-Leu] (peptide) | < 50 nM | 
Ac-Phe-[Orn-Pro-hle-Bta-Nle] (peptide) | < 200 nM | 
Ac-Phe-Orn-Ser-cha-Bta-Phe-NH2 (peptide) | < 50 nM | 
Ac-Mmy-Orn-Pro-hle-Pff-Phe-NH2 (peptide) | < 200 nM | 
Ac-Phe-Orn-NMA-cha-Bta-Phe-NH2 (peptide) | < 200 nM | 
Ac-Phe-[Orn-Pip-hle-Bta-Phe] (peptide) | < 200 nM | 
Ac-Phe-Orn-Pro-cha-Bta-Pcf-NH2 (peptide) | < 50 nM | 
H-Phe-[Orn-Pro-hle-Mcf-Phe] (peptide) | < 50 nM | 
Ac-Phe-Ffa-Aze-cha-Bta-Phe-NH2 (peptide) | < 50 nM | 
Ac-Phe-Orn-Pro-hle-Bta-1Ni-NH2 (peptide) | < 200 nM | 

Substance | IC50 activity group, enzyme release assay | EC50, agonistic activity, enzyme release assay
Ac-Phe-Orn-NMS-cha-Bta-Phe-NH2 (peptide) | < 200 nM | 
Ac-Phe-Orn-Pro-ctb-Pff-Phe-NH2 (peptide) | < 50 nM | 
H-Phe-[Orn-Ser-hle-Pff-Phe] (peptide) | < 200 nM | 
Ac-Phe-[Orn-Ser-cha-Trp-Nle] (peptide) | < 200 nM | 
Ac-Phe-Orn-Aze-cha-Trp-Phe-NH2 (peptide) | < 50 nM | > 100000 nM
Ac-Phe-[Orn-Asn-cha-Trp-Nle] (peptide) | < 200 nM | 
hrC5a (from UniProt P01031 678-751) (ligand) |  | 2.4 nM
Ac-Phe-Orn-Pro-Cha-Bta-NH-NBn-CO-NH2 (peptide) | < 200 nM | 
Ac-Phe-Orn-Tic-cha-Trp-Phe-NH2 (peptide) | < 200 nM | 
Ac-Guf-Phe-Orn-Aze-cha-Bta-Phe-NH2 (peptide) | < 200 nM | 
Ac-Phe-Orn-Pro-hle-Eaa-Phe-NH2 (peptide) | < 200 nM | 
Ac-Hyp-Phe-Orn-Aze-cha-Bta-Phe-NH2 (peptide) | < 50 nM | 
Ac-Phe-[Orn-Pro-hle-Pff-Phe] (peptide) | < 200 nM | 
Ac-Phg-Orn-Pro-cha-Bta-Phe-NH2 (peptide) | < 200 nM | 
Ac-Phe-[Orn-Hyp-hle-Trp-Phe] (peptide) | < 50 nM | 
Ac-Cit-Phe-Orn-Aze-cha-Bta-Phe-NH2 (peptide) | < 50 nM | 
Ac-Phe-Orn-Aze-cha-Pff-Phe-NH2 (peptide) | < 200 nM | 
Ac-Phe-Orn-Aze-cha-Bta-Phe-NH-Me (peptide) | < 2000 nM | 
tBu-CO-Phe-Orn-Pro-cha-Bta-Phe-NH2 (peptide) | < 200 nM | 
Ac-Phe-Orn-Pro-hle-Egc-Phe-NH2 (peptide) | < 200 nM | 
Ac-Phe-Orn-Pro-hle-Bta-2Ni-NH2 (peptide) | < 200 nM | 

Continued, values first:

IC50 activity group, enzyme release assay | EC50, agonistic activity, enzyme release assay | Substance
< 200 nM |  | H-Phe-[Orn-NMS-cha-Trp-Nle] (peptide)
< 200 nM |  | Ac-Phe-Dap-Pro-cha-Bta-Phe-NH2 (peptide)
< 200 nM |  | Ac-Phe-[Orn-Hyp-hle-Pff-Nle] (peptide)
< 200 nM |  | Ac-Phe-Orn-Pro-hle-Bta-Tyr-NH2 (peptide)
< 200 nM |  | Ac-Phe-Orn-Pro-hle-Bta-Eaa-NH2 (peptide)
< 50 nM |  | Ac-Ala-Phe-Orn-Aze-cha-Bta-Phe-NH2 (peptide)
< 50 nM |  | H-Phe-[Orn-Hyp-hle-Trp-Phe] (peptide)
< 20 nM |  | Ac-Phe-Fcn-Pro-cha-Bta-Phe-NH2 (peptide)
< 2000 nM |  | Ac-Phe-Orn-Hyp-cha-Trp-Phe-NH2 (peptide)
< 50 nM |  | Ac-Phe-Orn-Pro-cha-Bta-Bhf-NH2 (peptide)
< 200 nM |  | Ac-Thi-Orn-Pro-cha-Trp-Phe-NH2 (peptide)
< 2000 nM |  | Ac-Phe-Orn-Tic-cha-Trp-Phe-OH (peptide)
< 50 nM |  | Ac-Phe-Dab-Aze-cha-Bta-Phe-NH2 (peptide)
< 200 nM |  | (-CO-CH2-NH-CO-)-Phe-Orn-Pro-cha-Bta-Phe-NH2 (peptide)
< 200 nM |  | Ac-Phe-Orn-Pro-hle-Mcf-Phe-NH2 (peptide)
< 200 nM |  | Ac-Phe-Orn-Aze-cha-Mcf-Phe-NH2 (peptide)
< 200 nM |  | H-Phe-[Orn-Ser-hle-Ocf-Nle] (peptide)
< 50 nM |  | H-Phe-[Orn-Hyp-cha-Trp-Phe] (peptide)
< 200 nM |  | Ac-Phe-[Orn-Hyp-hle-Pff-Phe] (peptide)
< 200 nM |  | Ac-Phe-Ech-Pro-cha-Bta-Phe-NH2 (peptide)
< 50 nM |  | Ac-Arg-Phe-Orn-Aze-cha-Bta-Phe-NH2 (peptide)
< 50 nM |  | H-Phe-[Orn-Hyp-hle-Trp-Nle] (peptide)
< 200 nM |  | Ac-Mff-Orn-Pro-hle-Bta-Phe-NH2 (peptide)
< 20 nM |  | Ac-Phe-Har-Aze-cha-Bta-Phe-NH2 (peptide)
< 200 nM |  | Ac-Phe-Orn-Pro-hle-6FW-Phe-NH2 (peptide)
< 50 nM |  | Ac-Phe-Guf-Pro-cha-Bta-Phe-NH2 (peptide)
< 50 nM |  | 3PP-[Orn-Hyp-cha-Trp-Nle] (peptide)

IC50 activity group, enzyme release assay | EC50, agonistic activity, enzyme release assay | Substance
< 50 nM |  | H2N-CO-Phe-Orn-Pro-cha-Bta-Phe-NH2 (peptide)
< 2000 nM |  | Ac-Phe-Orn-Aze-cha-Pcf-Phe-NH2 (peptide)
< 200 nM |  | H-Phe-[Orn-Hyp-hle-Pff-Nle] (peptide)
< 200 nM |  | Ac-Phe-Orn-Pro-hle-Pff-Phe-NH2 (peptide)
< 200 nM |  | Ac-Phe-Orn-Pro-hle-Off-Phe-NH2 (peptide)
< 200 nM |  | Ac-Phe-Orn-Pro-hle-Bta-Cha-NH2 (peptide)
< 2000 nM |  | (-CO-CH2-CH2-CO-)-Phe-Orn-Pro-cha-Bta-Phe-NH2 (peptide)
< 50 nM |  | Ac-Phe-Orn-Pro-hle-1Ni-Phe-NH2 (peptide)
< 50 nM | > 1430 nM | Ac-Phe-[Orn-Hyp-cha-Trp-Phe] (peptide)
< 50 nM |  | Ac-Thi-Orn-Pro-cha-Bta-Thi-NH2 (peptide)
< 20 nM |  | Ac-Gly-Phe-Orn-Aze-cha-Bta-Phe-NH2 (peptide)
< 200 nM |  | H-Phe-[Orn-Hyp-hle-Pff-Chg] (peptide)
< 200 nM |  | Ac-Phe-Orn-Pro-hle-Egz-Phe-NH2 (peptide)
< 200 nM |  | Ac-Phe-[Orn-Hyp-Mmf-Trp-Phe] (peptide)
< 50 nM |  | Ac-Phe-Bta-Aze-cha-Bta-Phe-NH2 (peptide)
< 200 nM |  | Ac-Phe-Orn-Pro-hle-Pff-Mmy-NH2 (peptide)
< 50 nM |  | Ac-Phe-Orn-Pro-cha-Bta-Pmf-NH2 (peptide)
< 200 nM |  | Ac-Phe-Orn-Pro-hle-Mcf-Pff-NH2 (peptide)
< 200 nM |  | H-Phe-[Orn-Pro-hle-Pff-Nle] (peptide)
< 200 nM |  | Ac-Phe-Mpa-Pro-cha-Bta-Phe-NH2 (peptide)
< 200 nM |  | H-Phe-[Orn-NMS-hle-Pff-Phe] (peptide)
< 200 nM |  | Ac-Phe-Nle-Pro-cha-Bta-Phe-NH2 (peptide)
< 50 nM |  | Ac-Phe-Orn-Pro-hle-Mcf-Cha-NH2 (peptide)
< 200 nM |  | Ac-Phe-Orn-Pro-cha-1Ni-Phe-NH2 (peptide)
< 200 nM |  | Ac-Phe-Orn-Pro-hle-Ocf-Phe-NH2 (peptide)
< 200 nM |  | Ac-Phe-Orn-Pro-cha-Bta-Eaa-NH2 (peptide)
< 200 nM |  | Ac-Phe-Orn-Pro-hle-Pff-Cha-NH2 (peptide)
